Several values for one entry are separate records, joined by “and”; a condition that tells them apart may be missing. Equal values may be shown once. Values belong to the molecule of their own block, whether it stands above or below them.
Experiments:
[1] = biological target: SUN domain of human SUN1 (amino-acids 616-812) (human); test: SEC-MALS; untreated (native) co-purified complex; 8-13 mg/ml loaded on Superdex 200 Increase 10/300 GL in 20 mM Hepes pH 7.5, 150 mM KCl, 2 mM DTT
[2] = biological target: SUN domain of human SUN1 (amino-acids 616-812) (human); test: crystal structure; co-expressed and co-purified SUN1-KASH6 at 12 mg/ml; sitting drops, 20 °C; MES pH 6.0 (1.7 Å), Bis Tris pH 5.5 (2.3 Å), sodium citrate pH 5.5 (2.0 Å)
[3] = biological target: SUN domain of human SUN1 (amino-acids 616-812) (human); test: SEC-MALS; co-purified complex treated overnight in 20 mM sodium acetate pH 5.0, 150 mM KCl, 10% glycerol, 2 mM DTT, then analysed in 20 mM Hepes pH 7.5, 150 mM KCl, 2 mM DTT
[4] = biological target: SUN domain of human SUN1 (amino-acids 616-812) (human); test: SEC-MALS; untreated (native) co-purified complex; 8-13 mg/ml loaded on Superdex 200 Increase 10/300 GL in 20 mM Hepes pH 7.5, 150 mM KCl, 2 mM DTT; remark: listed apart in the source
[5] = biological target: SUN domain of human SUN1 (amino-acids 616-812) (human); test: crystal structure; co-expressed and co-purified SUN1-KASH6 at 12 mg/ml; sitting drops, 20 °C; MES pH 6.0 (1.7 Å), Bis Tris pH 5.5 (2.3 Å), sodium citrate pH 5.5 (2.0 Å); remark: listed apart in the source
[6] = biological target: the molecule itself; test: as above

Molecule: EDSWTSLEKILWPFTRLRHNGPPPV [KASH6 core H539K (human JAW1/LRMP amino-acids 531-555)]
percent (by mass) as 6:6 complex [4]: 40 % (by mass)
percent (by mass) as 9:6 complex [4]: 60 % (by mass)
stoichiometry N (KASH6 per SUN1) [4]: 1 and 0.67

Molecule: EDSWTSLEQILWPFTRLRHNGPPPV [KASH6 core H539Q (human JAW1/LRMP amino-acids 531-555)]
stoichiometry N (KASH6 per SUN1) [3]: 1

Molecule: EDSWTSLEHILWPFTRLRHNGPPPV [KASH6 core (human JAW1/LRMP amino-acids 531-555)]
stoichiometry N (KASH6 per SUN1) [4]: 1
percent (by mass) as 6:6 complex [3]: 15 % (by mass)
percent (by mass) as 9:6 complex [3]: 85 % (by mass)
stoichiometry N (KASH6 per SUN1) [3]: 0.67

More lines, main results first:

stoichiometry N [1]: 6
stoichiometry N [2]: 9
stoichiometry N [3]: 9 and 6
Molecule: SUN domain of human SUN1 (amino-acids 616-812) (domain or fragment)

percent (by mass) as 6:6 complex [3]: 55 % (by mass)
percent (by mass) as 9:6 complex [3]: 45 % (by mass)
stoichiometry N (KASH6 per SUN1) [3]: 0.67 and 1
Molecule: EDSWTSLEHILWPFTRLRYNGPPPV [KASH6 core H549Y (human JAW1/LRMP amino-acids 531-555)]

stoichiometry N (KASH6 per SUN1) [3]: 1
Molecule: EDSATSLEHILWPFTRLRHNGPPPV [KASH6 core W534A (human JAW1/LRMP amino-acids 531-555)]

stoichiometry N (KASH6 per SUN1) [4]: 1
stoichiometry N (KASH6 per SUN1) [5]: 0.67
stoichiometry N (KASH6 per SUN1) [3]: 0.67 and 1
B1: KASH domain of human JAW1/LRMP (KASH6, amino-acids 515-555) (peptide, UniProt Q12912 515-555, looked up)
chain: TGQLFQKSVDAAPTQQEDSWTSLEHILWPFTRLRHNGPPPV
notes: JAW1/LRMP (lymphoid restricted membrane protein), human, KASH domain, amino-acids 515-555; KASH6α, KASH6β and KASH6γ are the same peptide in three conformations or sites of the crystal structure; also called KASH6α; KASH6β; not shown: His6, N-terminal, cleaved; MBP, N-terminal, cleaved
binding result [6]: binds

Reference: paper PMC10827754, “The crystal structure of SUN1-KASH6 reveals an asymmetric LINC complex architecture compatible with nuclear membrane insertion” (Communications Biology, 2024)
